Assay results as given in US20180009871A1 (INTARCIA THERAPEUTICS, published 2018).
Where no end group is shown, it is not given here. [ ]: non-standard residue; d: D form. Aib = CC(C)(N)C(=O)O

Assays:
[1] = target: human GLP-1 receptor (GLP-1R) (human, UniProt P43220 24-463); experiment: cell-based or functional assay
[2] = target: human glucagon receptor (GCGR) (human, UniProt P47871 26-477); experiment: cell-based or functional assay

Sequence of human GLP-1 receptor (GLP-1R) (P43220 24-463): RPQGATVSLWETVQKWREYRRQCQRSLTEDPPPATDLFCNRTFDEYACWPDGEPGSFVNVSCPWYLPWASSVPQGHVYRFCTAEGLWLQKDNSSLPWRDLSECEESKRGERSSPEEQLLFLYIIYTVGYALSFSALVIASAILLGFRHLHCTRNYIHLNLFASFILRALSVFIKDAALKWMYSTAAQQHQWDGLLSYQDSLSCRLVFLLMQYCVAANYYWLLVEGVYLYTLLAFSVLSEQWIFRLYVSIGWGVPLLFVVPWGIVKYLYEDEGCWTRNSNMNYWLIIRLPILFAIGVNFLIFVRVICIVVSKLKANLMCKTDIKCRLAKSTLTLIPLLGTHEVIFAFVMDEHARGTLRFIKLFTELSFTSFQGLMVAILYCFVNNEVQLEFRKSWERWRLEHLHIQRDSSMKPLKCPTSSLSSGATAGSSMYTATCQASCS

Row | Binder | hGLP1 pEC50 (cAMP) [1] | hGCGR pEC50 (cAMP) [2]
1 | YSHGTFTSDYSKYLD[Aib]KRAQEFV[Aib]WLEDEPKSGAPPPS-OH (N-terminus assumed; SMILES CC(C)C[C@H](NC(=O)[C@H](Cc1ccc(O)cc1)NC(=O)[C@H](CCCCN)NC(=O)[C@H](CO)NC(=O)[C@H](Cc1ccc(O)cc1)NC(=O)[C@H](CC(=O)O)NC(=O)[C@H](CO)NC(=O)[C@@H](NC(=O)[C@H](Cc1ccccc1)NC(=O)[C@@H](NC(=O)CNC(=O)[C@H](Cc1c[nH]cn1)NC(=O)[C@H](CO)NC(=O)[C@@H](N)Cc1ccc(O)cc1)[C@@H](C)O)[C@@H](C)O)C(=O)N[C@@H](CC(=O)O)C(=O)NC(C)(C)C(=O)N[C@@H](CCCCN)C(=O)N[C@@H](CCCNC(=N)N)C(=O)N[C@@H](C)C(=O)N[C@@H](CCC(N)=O)C(=O)N[C@@H](CCC(=O)O)C(=O)N[C@@H](Cc1ccccc1)C(=O)N[C@H](C(=O)NC(C)(C)C(=O)N[C@@H](Cc1c[nH]c2ccccc12)C(=O)N[C@@H](CC(C)C)C(=O)N[C@@H](CCC(=O)O)C(=O)N[C@@H](CC(=O)O)C(=O)N[C@@H](CCC(=O)O)C(=O)N1CCC[C@H]1C(=O)N[C@@H](CCCCN)C(=O)N[C@@H](CO)C(=O)NCC(=O)N[C@@H](C)C(=O)N1CCC[C@H]1C(=O)N1CCC[C@H]1C(=O)N1CCC[C@H]1C(=O)N[C@@H](CO)C(=O)O)C(C)C) [Compound A29] | < 9 pEC50 | 11.1 pEC50
2 | YSHGTFTSDYSKYLD[Aib]KRAQEFV[Aib]WLEDEGPSSGAPPPS-OH (N-terminus assumed; SMILES CC(C)C[C@H](NC(=O)[C@H](Cc1ccc(O)cc1)NC(=O)[C@H](CCCCN)NC(=O)[C@H](CO)NC(=O)[C@H](Cc1ccc(O)cc1)NC(=O)[C@H](CC(=O)O)NC(=O)[C@H](CO)NC(=O)[C@@H](NC(=O)[C@H](Cc1ccccc1)NC(=O)[C@@H](NC(=O)CNC(=O)[C@H](Cc1c[nH]cn1)NC(=O)[C@H](CO)NC(=O)[C@@H](N)Cc1ccc(O)cc1)[C@@H](C)O)[C@@H](C)O)C(=O)N[C@@H](CC(=O)O)C(=O)NC(C)(C)C(=O)N[C@@H](CCCCN)C(=O)N[C@@H](CCCNC(=N)N)C(=O)N[C@@H](C)C(=O)N[C@@H](CCC(N)=O)C(=O)N[C@@H](CCC(=O)O)C(=O)N[C@@H](Cc1ccccc1)C(=O)N[C@H](C(=O)NC(C)(C)C(=O)N[C@@H](Cc1c[nH]c2ccccc12)C(=O)N[C@@H](CC(C)C)C(=O)N[C@@H](CCC(=O)O)C(=O)N[C@@H](CC(=O)O)C(=O)N[C@@H](CCC(=O)O)C(=O)NCC(=O)N1CCC[C@H]1C(=O)N[C@@H](CO)C(=O)N[C@@H](CO)C(=O)NCC(=O)N[C@@H](C)C(=O)N1CCC[C@H]1C(=O)N1CCC[C@H]1C(=O)N1CCC[C@H]1C(=O)N[C@@H](CO)C(=O)O)C(C)C) [Compound A28] | < 9 pEC50 | 12.2 pEC50
3 | YSHGTFTSDYSKYLD[Aib]KRAQEFV[Aib]WLEDEPSKGAPPPS-OH (N-terminus assumed; SMILES CC(C)C[C@H](NC(=O)[C@H](Cc1ccc(O)cc1)NC(=O)[C@H](CCCCN)NC(=O)[C@H](CO)NC(=O)[C@H](Cc1ccc(O)cc1)NC(=O)[C@H](CC(=O)O)NC(=O)[C@H](CO)NC(=O)[C@@H](NC(=O)[C@H](Cc1ccccc1)NC(=O)[C@@H](NC(=O)CNC(=O)[C@H](Cc1c[nH]cn1)NC(=O)[C@H](CO)NC(=O)[C@@H](N)Cc1ccc(O)cc1)[C@@H](C)O)[C@@H](C)O)C(=O)N[C@@H](CC(=O)O)C(=O)NC(C)(C)C(=O)N[C@@H](CCCCN)C(=O)N[C@@H](CCCNC(=N)N)C(=O)N[C@@H](C)C(=O)N[C@@H](CCC(N)=O)C(=O)N[C@@H](CCC(=O)O)C(=O)N[C@@H](Cc1ccccc1)C(=O)N[C@H](C(=O)NC(C)(C)C(=O)N[C@@H](Cc1c[nH]c2ccccc12)C(=O)N[C@@H](CC(C)C)C(=O)N[C@@H](CCC(=O)O)C(=O)N[C@@H](CC(=O)O)C(=O)N[C@@H](CCC(=O)O)C(=O)N1CCC[C@H]1C(=O)N[C@@H](CO)C(=O)N[C@@H](CCCCN)C(=O)NCC(=O)N[C@@H](C)C(=O)N1CCC[C@H]1C(=O)N1CCC[C@H]1C(=O)N1CCC[C@H]1C(=O)N[C@@H](CO)C(=O)O)C(C)C) [Compound A30] | < 9 pEC50 | 10.9 pEC50
